B1: Tm1743 (Thermotoga maritima MSB8) (protein)
chain: MLYKELGRTGEEIPALGLGTWGIGGFETPDYSRDEEMVELLKTAIKMGYTHIDTAEYYGGGHTEELIGKAIKDFRREDLFIVSKVWPTHLRRDDLLRSLENTLKRLDTDYVDLYLIHWPNPEIPLEETLSAMAEGVRQGLIRYIGVSNFDRRLLEEAISKSQEPIVCDQVKYNIEDRDPERDGLLEFCQKNGVTLVAYSPLRRTLLSEKTKRTLEEIAKNHGATIYQIMLAWLLAKPNVVAIPKAGRVEHLRENLKATEIKLSEEEMKLLDSLG
B2: Tm1743 (Thermotoga maritima MSB8; W118E/W21L) (protein)
chain: MLYKELGRTGEEIPALGLGTLGIGGFETPDYSRDEEMVELLKTAIKMGYTHIDTAEYYGGGHTEELIGKAIKDFRREDLFIVSKVWPTHLRRDDLLRSLENTLKRLDTDYVDLYLIHEPNPEIPLEETLSAMAEGVRQGLIRYIGVSNFDRRLLEEAISKSQEPIVCDQVKYNIEDRDPERDGLLEFCQKNGVTLVAYSPLRRTLLSEKTKRTLEEIAKNHGATIYQIMLAWLLAKPNVVAIPKAGRVEHLRENLKATEIKLSEEEMKLLDSLG
B3: Tm1743 (Thermotoga maritima MSB8; W118H/W21L) (protein)
chain: MLYKELGRTGEEIPALGLGTLGIGGFETPDYSRDEEMVELLKTAIKMGYTHIDTAEYYGGGHTEELIGKAIKDFRREDLFIVSKVWPTHLRRDDLLRSLENTLKRLDTDYVDLYLIHHPNPEIPLEETLSAMAEGVRQGLIRYIGVSNFDRRLLEEAISKSQEPIVCDQVKYNIEDRDPERDGLLEFCQKNGVTLVAYSPLRRTLLSEKTKRTLEEIAKNHGATIYQIMLAWLLAKPNVVAIPKAGRVEHLRENLKATEIKLSEEEMKLLDSLG
B4: Tm1743 (Thermotoga maritima MSB8; W21S/W86E) (protein)
chain: MLYKELGRTGEEIPALGLGTSGIGGFETPDYSRDEEMVELLKTAIKMGYTHIDTAEYYGGGHTEELIGKAIKDFRREDLFIVSKVEPTHLRRDDLLRSLENTLKRLDTDYVDLYLIHWPNPEIPLEETLSAMAEGVRQGLIRYIGVSNFDRRLLEEAISKSQEPIVCDQVKYNIEDRDPERDGLLEFCQKNGVTLVAYSPLRRTLLSEKTKRTLEEIAKNHGATIYQIMLAWLLAKPNVVAIPKAGRVEHLRENLKATEIKLSEEEMKLLDSLG
B5: Tm1743 (Thermotoga maritima MSB8; W21S/W86N) (protein)
chain: MLYKELGRTGEEIPALGLGTSGIGGFETPDYSRDEEMVELLKTAIKMGYTHIDTAEYYGGGHTEELIGKAIKDFRREDLFIVSKVNPTHLRRDDLLRSLENTLKRLDTDYVDLYLIHWPNPEIPLEETLSAMAEGVRQGLIRYIGVSNFDRRLLEEAISKSQEPIVCDQVKYNIEDRDPERDGLLEFCQKNGVTLVAYSPLRRTLLSEKTKRTLEEIAKNHGATIYQIMLAWLLAKPNVVAIPKAGRVEHLRENLKATEIKLSEEEMKLLDSLG

Substrate in one data set: CCOC(=O)C(=O)CCc1ccccc1
Kind of data set: purified protein. The class given is biochemical, Thermotoga maritima. The following applies: apparent, 0.25 mM NADPH, 50 mM potassium phosphate pH 6.5, 35 °C, 30 mM DMSO.
As to B1, the Km (in general, the substrate concentration at which the rate is half of its maximum) was 1100 ± 40 µM; the kcat (usually the maximal rate divided by the concentration of active sites) amounted to 1.96 ± 0.02 s⁻¹; the kcat/Km (in general, the turnover number divided by the Michaelis constant) is 1780 ± 30 M⁻¹ s⁻¹.

As for B2, the Km turned out to be 10530 ± 100 µM, the kcat stood at 1.98 ± 0.02 s⁻¹ and the catalytic efficiency (kcat/Km) came to 190 ± 10 M⁻¹ s⁻¹.

On to B3, for which the Km stood at 15980 ± 200 µM, the kcat stood at 1.98 ± 0.01 s⁻¹ and the kcat/Km turned out to be 120 ± 10 M⁻¹ s⁻¹.

With B4, the Km was determined as 1250 ± 20 µM, the kcat is 1.01 ± 0.01 s⁻¹ and the kcat/Km worked out at 810 ± 20 M⁻¹ s⁻¹.

On to B5, for which the Km came to 1620 ± 20 µM, the kcat was found to be 0.84 ± 0.01 s⁻¹ and the kcat/Km was 510 ± 20 M⁻¹ s⁻¹.

The target of a further data set is T1, Tm1743 (Thermotoga maritima, UniProt Q9X265).
T1 construct: gene TM_1743
The data set is described as follows: X-ray crystal structure, […] Å. The following applies: co-crystallised, protein:NADP+ 1:1.5 molar; cofactor binding site.
With `NC(=O)c1ccc[n+]([C@@H]2O[C@H](COP(=O)(O)OP(=O)(O)OC[C@H]3O[C@@H](n4cnc5c(N)ncnc54)[C@H](OP(=O)(O)O)[C@@H]3O)[C@@H](O)[C@H]2O)c1` [NADP^+], the “X-ray crystal structure, 2.0 Å” value is “we crystallized Tm1743 in complex with the cofactor NADP^+”.

Source of the values: PMC5479831, “Semi-rational engineering of a thermostable aldo–keto reductase from Thermotoga maritima for synthesis of enantiopure ethyl-2-hydroxy-4-phenylbutyrate (EHPB)” (Scientific Reports, 2017).
